T1: BCMA on BCMA-positive NCI-H929, ARP-1 and U266B1 cells (human, UniProt Q02223 1-184)
T1 construct: they are human cell lines; also called B-cell maturation antigen; TNFRSF17
T1 sequence: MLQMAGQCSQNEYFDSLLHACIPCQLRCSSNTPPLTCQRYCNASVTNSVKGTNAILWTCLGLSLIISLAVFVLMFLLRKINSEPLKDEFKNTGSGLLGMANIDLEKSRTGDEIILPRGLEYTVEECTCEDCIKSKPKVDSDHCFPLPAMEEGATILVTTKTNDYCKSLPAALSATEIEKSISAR


What was measured:
[1] = molecular target: T1, BCMA on BCMA-positive NCI-H929, ARP-1 …; assay: FACS, NCI-H929 cells
Protocol: (§1) Variants for which sufficient protein was purified in secondary screening were tested in a fluorescence-activated cell sorting (FACS) cell-binding assay. […] 6-12 point dilutions of anti-BCMA variants starting from concentrations of about 100-200 nM antibody were dispensed into each well using a BioMekFX (Beckman Coulter). Cells were then incubated on ice for 1 hr, washed with FACS buffer and incubated for 1 hr on ice with […] FACS buffer containing […] Alexa647-conjugated Goat Anti-Human IgG dispensed using BioMekFX (Beckman Coulter). Cells were then washed 2× with FACS buffer and fixed for 10 minutes in […] PBS with 2% PFA prior to fluorescence detection. Samples were acquired using a Beckton Dickinson LSRII FACS. Geometric Mean Fluorescence Intensity of BCMA antibody binding was analyzed using FlowJo® software (Trec Star, Inc.).

[2] = molecular target: cynomolgus BCMA on 293T-cynoBCMA cells (cynomolgus, UniProt Q02223 1-184 (human entry)); assay: FACS, 293T-cynoBCMA cells
Protocol: as §1

[3] = molecular target: T1, BCMA on BCMA-positive NCI-H929, ARP-1 …; assay: cell-based or functional assay
[4] = molecular target: T1, BCMA on BCMA-positive NCI-H929, ARP-1 …; assay: cell-based or functional assay; remark: listed apart in the source

Chain of cynomolgus BCMA on 293T-cynoBCMA cells (Q02223 other isoform, or with tags, fused parts or gaps): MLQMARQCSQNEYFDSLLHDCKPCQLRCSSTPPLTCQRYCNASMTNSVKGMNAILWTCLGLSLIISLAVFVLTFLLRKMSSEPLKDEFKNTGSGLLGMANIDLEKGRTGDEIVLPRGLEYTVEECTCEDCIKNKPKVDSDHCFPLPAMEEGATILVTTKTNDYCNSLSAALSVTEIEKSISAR

| Binder | Bmax (MFI) [1] [MFI] | Bmax (MFI) [2] [MFI] | ARP-1, SC239-conjugated 2° antibody cell killing, EC50 [3] [nM] | ARP-1, SC239-conjugated 2° antibody cell killing, Span [3] [%] | U266B1, SC239-conjugated 2° antibody cell killing, EC50 [3] [nM] | U266B1, SC239-conjugated 2° antibody cell killing, Span [3] [%] | U266B1, SC225-conjugated 2° antibody cell killing, EC50 [4] [nM] | U266B1, SC225-conjugated 2° antibody cell killing, Span [4] [%] |
| --- | --- | --- | --- | --- | --- | --- | --- | --- |
| 9A8 (antibody, V domains shown, chicken HybriFree-derived antibody; also called Antibody 30) VH: AVTLDESGGGLQTPGGTLSLVCKASGFTFSSFNMFWVRQAPGKGLEWVAYIRNDGNSASYGPAVKGRATISRDNGQSTVRLQLNNLRAEDTATYYCAKTTCIGSGGCIDTWGHGTEVIVSS VL: ALTQPSSVSANPGETVKITCSGGSSDYGWFQQKSPGSAPVTVIYSNNQRPSGIPSRFSGSKSGSTGTLTITGVQAEDEAIYYCANVDYTDDVFGAGTTLTVL | 21100 | 17800 | 2.4 | 82 | 2.3 | 42 |  |  |
| 10G5 (antibody, V domains shown, chicken HybriFree-derived antibody; also called Antibody 31) VH: AVTLDESGGGLQTPGGVLSLVCKASGFTFSSFNMFWVRQAPGKGLEWVAYISNDGSSTSYGPAVKGRATISRDNGQSTVRLQLNNLRAEDTATYFCAKTTCIGSGGCIDTWGHGTEVIVSS VL: ALTQPSSVSANPGETVKITCSGGNYDYGWYQQKSPGSAPVTLIYYNNKRPSDIPSRFSGSKSGSTGTLTITGVQAEDEAIYYCANVDSTDDVFGAGTTLTVL | 25800 | 24400 | 3.5 | 82 | 1.9 | 63 |  |  |
| 11D6 (antibody, V domains shown, chicken HybriFree-derived antibody; also called Antibody 32) VH: AVTLDESGGGLQTPGGTLSLVCKASGFTFSSFNMFWVRQAPGEGLEWVAYIRNDGRSTSYGPAVKGRATISRDNGQSTVRLQLNNLRAEDTGTYFCAKTTCVGSGGCIDTWGHGTEVIVSS VL: ALTQPSSVSANPGETVEITCSGGNSDYGWFQQKSPGSAPVTVIYRNNQRPSDIPSRFSGSGSGSTNTLTITGVQAEDEAIYYCGNVDFTDDVFGAGTTLTVL | 26400 | 27700 | 3.8 | 83 | 1.1 | 67 |  |  |
| SRP2291-A04 (antibody, IgG1, V domains shown, IgG1 with trastuzumab light chain, His/FLAG-tagged, cell-free expressed; also called Antibody 28) VH: EVQLVESGGGLVQPGGSLRLSCAASGFNISSYGIHWVRQAPGKGLEWVGFISPYDGYTEYADSVKGRFTISAGTSKNTAYLQMNSLRAEDTAVYYCARDFNDRYFTYVLDYWGQGTLVTVSS VL: not shown | 33900 | 63800 |  |  |  |  | 49 | 0.8 |
| SRP2291-G05 (antibody, IgG1, V domains shown, IgG1 with trastuzumab light chain, His/FLAG-tagged, cell-free expressed; also called Antibody 24) VH: EVQLVESGGGLVQPGGSLRLSCAASGFNIAAYTIHWVRQAPGKGLEWVGWISPYGGYTEYADSVKGRFTISADTSKNTAYLQMNSLRAEDTAVYYCARDFHDRYATFVLDYWGQGTLVTVSS VL: not shown | 23200 | 62700 |  |  |  |  | 20 | 0.8 |
| SRP2291-D07 (antibody, IgG1, V domains shown, IgG1 with trastuzumab light chain, His/FLAG-tagged, cell-free expressed; also called Antibody 26) VH: EVQLVESGGGLVQPGGSLRLSCAASGFNIKDTYIHWVRQAPGKGLEWVGVISPYDGYTEYADSVKGRFTISADTSKNTAYLQMNSLRAEDTAVYYCAHDFYDRYSTYVLDYWGQGTLVTVSS VL: not shown | 28700 | 67900 |  |  |  |  | 16 | 2 |
| SRP2291-A01 (antibody, IgG1, V domains shown, IgG1 with trastuzumab light chain, His/FLAG-tagged, cell-free expressed; also called Antibody 29) VH: EVQLVESGGGLVQPGGSLRLSCAASGFNIDPYTIHWARQAPGKGLEWVAHISPYDGYTDYADSVKGRFTISADTSKNTAYLQMNSLRAEDTAVYYCARDFYDRYSTYVLDYWGQGTLVTVSS VL: not shown | 32500 | 67200 |  |  |  |  | 58 | 1.1 |
| SRP2291-F10 (antibody, IgG1, V domains shown, IgG1 with trastuzumab light chain, His/FLAG-tagged, cell-free expressed; also called Antibody 27) VH: EVQLVESGGGLVQPGGSLRLSCAASGFNIDPYTIHWVRQAPGKGLEWVGWISPYDGYTEYADSVKGRFTISADTSKNTAYLQMNSLRAEDTAVYYCARDYYDRYSTYVLDYWGRGTLVTVSS VL: not shown | 33800 | 66500 |  |  |  |  | 46 | 1 |
| SRP2291-E06 (antibody, IgG1, V domains shown, IgG1 with trastuzumab light chain, His/FLAG-tagged, cell-free expressed; also called Antibody 25) VH: EVQLVESGGGLVQPGGSLRLSCAASGFNISPYTIHWVRQAPGKGLEWVAHIFPSGGYTDYADSVKGRFTISADTSKNTAYLQMNSLRAEDTAVYYCARDFYDRYATYVLDYWGQGTLVTVSS VL: not shown | 34400 | 68300 |  |  |  |  | 27 | 1.1 |
| SRP2288-A03 (antibody, IgG1, V domains shown, IgG1 with trastuzumab light chain, His/FLAG-tagged, cell-free expressed; also called Antibody 15) VH: EVQLVESGGGLVQPGGSLRLSCAASGFNINNSWIHWVRQAPGKGLEWVGWIYPYIGFTEYADSVKGRFTISADTSKNTAYLQMNSLRAEDTAVYYCARDYDLRYLTGVLDYWGQGTLVTVSS VL: not shown | 16300 | 46800 |  |  |  |  | 2.3 | 42 |
| SRP2290-A02 (antibody, IgG1, V domains shown, IgG1 with trastuzumab light chain, His/FLAG-tagged, cell-free expressed; also called Antibody 22) VH: EVQLVESGGGLVQPGGSLRLSCAASGFNISTRWIHWVRQAPGKGLEWVGVITPSAGYTHYADSVKGRFTISAGTSKNTAYLQMNSLRAEDTAVYYCARDLGSRYWVGVFDYWGQGTLVTVSS VL: not shown | 33600 | 70300 |  |  |  |  | 1.6 | 70 |
| SRP2290-C07 (antibody, IgG1, V domains shown, IgG1 with trastuzumab light chain, His/FLAG-tagged, cell-free expressed; also called Antibody 19) VH: EVQLVESGGGLVQPGGSLRLSCAASGFNITYDWIHWVRQAPGKGLEWVGVITPFDGYTYYADSVKGHFTISADTSKNTAYLQMNSLRAEDTAVYYCARDMGVGYWVGFSDYWGQGTLVTVSS VL: not shown |  | 78100 |  |  |  |  | 0.93 | 75 |
| SRP2290-D02 (antibody, IgG1, V domains shown, IgG1 with trastuzumab light chain, His/FLAG-tagged, cell-free expressed; also called Antibody 18) VH: EVQLVESGGGLVQPGGSLRLSCAASGFNISSYWIHWVRQAPGKGLEWMGVITPAAGYTYYADSVKGRFTISADTSKNTAYLQMNSLRAEDTAVYYCARDLGHRYWVGVFDYWGQGTLVTVSS VL: not shown | 33600 | 75800 |  |  |  |  | 1.4 | 60 |
| SRP2290-G01 (antibody, IgG1, V domains shown, IgG1 with trastuzumab light chain, His/FLAG-tagged, cell-free expressed; also called Antibody 17) VH: EVQLVESGGGLVQPGGSLRLSCAASGFNISPYWIHWVRQAPGKGLEWVGVITPPSGFTYYADSVKGRFTISADTSKNTAYLQVNSLRAEDTAVYYCARDLGVGYWVGFSDYWGQGTLVTVSS VL: not shown |  | 77100 |  |  |  |  | 1.4 | 70 |
| SRP2290-C08 (antibody, IgG1, V domains shown, IgG1 with trastuzumab light chain, His/FLAG-tagged, cell-free expressed; also called Antibody 21) VH: EVQLVESGGGLVQPGGSLRLSCAASGFNIQPYWIHWVRQAPGKGLEWVGVITPPSGYTYYADSVKGRFTISADTSKNTAYLQMNSLRAEDTAVYYCARDWGVGYWVGFSDYWGQGTLVTVSS VL: not shown | 37800 | 71000 |  |  |  |  | 1.1 | 73 |
| SRP2290-D05 (antibody, IgG1, V domains shown, IgG1 with trastuzumab light chain, His/FLAG-tagged, cell-free expressed; also called Antibody 20) VH: EVQLVESGGGLVQPGGSLRLSCAASGFNIASRWIHWVRQAPGKGLEWVGVITPSAGYTYYADSVKGRFTISADTSKNTAYLQMNSLRAEDTAVYYCARDLGYGYWVGFSDYWGQGTLVTVSS VL: not shown | 21800 | 57600 |  |  |  |  | 0.96 | 50 |
